Among the data in PMC12422969 are stoichiometry N values, retold here.

The target of the assay is GluA3-G (GluA3(Gly439)), flip splice form, R/G-edited, as the GluA3 part of the GluA3-G–TARP-γ2 tandem construct (rat). In words: cryo-EM structure; apo state; GluA3–TARP-γ2 tandem construct purified as a complex from Expi293 cells (digitonin lysis; 50 mM Tris pH 8, 150 mM NaCl, 0.1% GDN), 2–3 mg/ml, vitrified at 4 °C.

As to “GluA3-G (GluA3(Gly439)), flip splice form, R/G-edited, as the GluA3 part of the GluA3-G–TARP-γ2 tandem construct (receptor)”, the stoichiometry N came to 4.

For orientation: stoichiometry N means the number of molecules, sites or subunits per partner or assembly.
